The nanobody polyreactivity screen of Harvey et al. (2022)

Test: yeast display, Sf9 membrane polyspecificity reagent, FACS + sequencing; frameworks hold sequencing errors
In short: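 Synthetic nanobody libraries on Saccharomyces cerevisiae BJ5465 were galactose-induced for 36–48 hours, stained 1 hour at 4 °C with 10% biotinylated, detergent-solubilized Sf9 membrane reagent and enriched on streptavidin microbeads. FACS then separated cells into low and high (top ~1%) gates by anti-HA (expression) and streptavidin (reagent binding) fluorescence. Genes were colony-PCR amplified, MiSeq 2 × 250 sequenced and CDR-length filtered. A clone's polyreactivity label is that of its gate of origin.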

Sequence	polyreactivity (PSR sort gate)
QVQLVESGGGLVQAGGSLRLSCAASGLTFRHYAMGWYRQAPGKERELVAAITSSGGSTYYADSVKGRFTISRDNAKNTVYIQMNSLKPEDTAVYYCNARWSYFHAVSGVASDYWGQGTQVTVSS	high polyreactivity
QVQLVESGGGLVQAGGSLRLSCAASGLTFRLNAMGWYRQAPGKERELVAAITSIADRTYYADSVKGRFTISRDNAKNTVYLQMNSLKPEDTAVYYCNVTPRRAQVRIGNYWGQGTQVTVSS	high polyreactivity
QVQLVESGGGLVQAGGSLRLSCAASGLTFRRYAMGWYRPAPGKEREFVAAITHNGGRTYYADSVKGRFTISRDNAKNTVYLQMNSLKPEDTAVYYCNAGGQRVNYDYWGQGTQVTVSS	high polyreactivity
QVQLVESGGGLVQAGGSLRLSCAASGLTFRRYAMGWYRQAPGKDRELVAAISRGDNTNYADSVKGRFTISRDNAKNTVYLQMTSLKPEDTAVYFCAPRLWIRGNFNYWGQATQVTVSS	high polyreactivity
QVQLVESGGGLVQAGGSLRLSCAASGLTFRRYDMGWYSQAPGKERELVAAITGGGSTYYADSVKGRFTISRDNAKNTVYLQMNSLKPEDTAGYYCAAGTWYWSYAYDYWGQGTQVTVSS	high polyreactivity
QVQLVESGGGLVQAGGSLRLSCAASGLTFRSYSMGWYRQAPGKEREFVAAITGSGDTTYYADSVKGRFTISRDNAKNTVYLQMNSLKPEDTAVYYCNADRDYLWITLYEYWGQGTQVTVSS	high polyreactivity
QVQLVESGGGLVQAGGSLRLSCAASGLTFRTYAMGWYRQAPGKERELVAAISRSGSTTYYADSVKGRFTISRDNAKNTVYLQMNSLKPEDTAVYYCAAVGIRWLEYWGQGTQVTVSS	high polyreactivity
QVQLVESGGGLVQAGGSLRLSCAASGLTFRYYAMGRNRPARGKEREVVAVITTSTGTTYYADSVKGRFTISRDNAKNTVYLQMNSLKPEDTPVYYCATDTGAYLYSMYDYWGQVTQVTVSS	low polyreactivity
QVQLVESGGGLVQAGGSLRLSCAASGLTFRYYAMGWYRQAPGKERELVATITRAGRTNYADSVKGRFTISRDNAKNTVYLQMNSLKPEDTAVYYCATKRVLTGYDSWGQGTQVTVSS	high polyreactivity
QVQLVESGGGLVQAGGSLRLSCAASGLTFSAYTMGWYRQAPGKERELVAAIDRSGSTYYADSVKGRFTISRDNAKNTVYLQMNSLKPEDTAVYYCAADAVRKDLFDYWGQGTQVTVSS	low polyreactivity
QVQLVESGGGLVQAGGSLRLSCAASGLTFSLYAMGWYGQAPGKEREFVAAISSSGGSTYYADSVKGRFTISRDNAKNTVYLQMNSLKPEDTAVYYCNVRRKSRMGYWGQGTQVTVSS	high polyreactivity
QVQLVESGGGLVQAGGSLRLSCAASGLTFSLYAMGWYRQAPGKERELVAAISSSGSTYYADSVKGRFTISRDNAKNTVYLQMNILKPEDTAVYYFAADAPWWIDPIAGNYWGQGTQVTVSS	high polyreactivity
QVQLVESGGGLVQAGGSLRLSCAASGLTFSRYAMGWYRQAPGKERELVAAISGSGGSTYYADSVKGRFTISRDNAKNTVYLQMNSLKPEDTAVYYCNKYRATNSARDYWGQGTQVTVSS	high polyreactivity
QVQLVESGGGLVQAGGSLRLSCAASGLTFSRYAMGWYRQAPGKERELVATIRSAGSTYYADSVKGRFTISRDNAKNTVYLQMNTLKPEDTAVYYCATAPYYHVKQRYYYWGQGTQVTVSS	high polyreactivity
QVQLVESGGGLVQAGGSLRLSCAASGLTFSRYARGWYRQAPGKERELVAAITGSGGNTYYADSVKGRFTISRDNAKNTVYLQMNSLKPEETAVYYCAARDRGDVTRRKGYYWGQGTQVTVSS	high polyreactivity
QVQLVESGGGLVQAGGSLRLSCAASGLTFSWYAMGWYRPAPGKERELVAAISSGGSTYYADSVKGRFTISRDNAKNTVYLQMNSLKPEDTAVYYCNAESYYYGFFWSGFRYGYWGQGTQVTVSS	high polyreactivity
QVQLVESGGGLVQAGGSLRLSCAASGLTFTGNAMGWNRQAPGKEREFVAAIRWSAGSTYYADSVKGRFTISRDNAKNTVYLQMNSLKPEDSAVYYCNAGLNVSGHYPNDYWGQGTQVTVSS	low polyreactivity
QVQLVESGGGLVQAGGSLRLSCAASGLTFTGYAMGWYRQAPGKERELVAAISSRGGSTYYADSVKGRFTISRDNAKNTVYLQMNSLKPEDTAVYYCAARASSGARGLDYWGQGTQVTVSS	high polyreactivity
QVQLVESGGGLVQAGGSLRLSCAASGLTFTGYAMGWYRQAPGKERELVASISRSGASTFYADSVKGRFTISRDNAKNTVYLQMNSLKPEDTAVYYCAAVPGWLTSRYYYWGQGTHVTVSS	high polyreactivity
QVQLVESGGGLVQAGGSLRLSCAASGLTFTHYARGWYREAPGKERELVAAISRSGGTTYYADSVKGRFTISRDNAKNTLYFQMNSLKPEDTAVYYCAARWWYRYNYDYWGLGTQVTVSS	high polyreactivity
QVQLVESGGGLVQAGGSLRLSCAASGLTFTSNVMGWYRQAPGKERELVAAISSGGSTYYADSVKGRFTISRDNAKNTVYLQMNSLKPEDTAVYYCNTKLWGQYDYWGQGTQVTVSS	low polyreactivity
QVQLVESGGGLVQAGGSLRLSCAASGLTFTYYAMGWYRQAPGKERELVAAISWSGGSTYYADSVKGRFTISRDNAKNTVYLQMNSLKPEDTAVYYCAAATAYYRYRGGYDYWGQGTQVTVSS	high polyreactivity

Sequence	polyreactivity (PSR sort gate)
QVQLVESGGGLVQAGGSLRLSCAASGLTFTYYAMGWYRQAPGKERELVAVISRRGGSTYYADSVKGRFTISRDNAKNTVYLQMNSLKPEDTAVYYCAATNLQSAYDYWGHGTQVTVSS	high polyreactivity
QVQLVESGGGLVQAGGSLRLSCAASGLTFVDYAMGWYRQAPGKERELVASIDYSGSSTYYADSVKGRFTISRDNAKNTVYLQMNSLKPEDTAVYYCAATDSGEYWGQGTQVTVSS	low polyreactivity
QVQLVESGGGLVQAGGSLRLSCAASGLTFVENAMGWYRQAPGKERELVASISNGGSTYYADSVKGRFTISRDNAKNTVYLQMNSLKQEDTAVYYCAAGYWAGYGSTAPYDYWGQGTQVTVSS	low polyreactivity
QVQLVESGGGLVQAGGSLRLSCAASGLTFVPNAMRWYRQAPGKERELVAAISNNGGRTYYADSVKGRFTISRDNAKNTVYLQMNSLKPEDTAVYYCAKSLSPGERHSYDYRGQGTQVTVSS	high polyreactivity
QVQLVESGGGLVQAGGSLRLSCAASGLTFVPYAMGWYRQAPGKERELVAAIDSGGRTNYADSVKGRFTISRDNAKNTVYLQMNSLKPEDTAVYYCAVEWLSYYDENDYWGQGTQVTVSS	high polyreactivity
QVQLVESGGGLVQAGGSLRLSCAASGLTFVQYTMGWYRQAPGKERELVAVITSASSTNYADSVKGRFTISRDNAKNTVYLQMNSLKPEDTAVYYCNATTYPYYTNSYQYEYWGQGTQVTVSS	low polyreactivity
QVQLVESGGGLVQAGGSLRLSCAASGLTFVTYVMGWYRQAPGKERELVAAISYSGGSTYYADSVKGRFTISRDNAKNTVYLQMNSLKPEDTAVYYCAAEWYGYQEDDYRGQGTQVTVSS	low polyreactivity
QVQLVESGGGLVQAGGSLRLSCAASGLTFVVYAMGWYRQAPGKERELVAAISSTGNTYYADSEKGRFTISRDNAKNTVYLQMNSLKPEDTAVYYCAAERSFYWYHFDYWGQGTQVTVSS	high polyreactivity
QVQLVESGGGLVQAGGSLRLSCAASGLTFVWYAMGWYRQAPGKERELVASITRRGVSTYADSVKGRFTISRDNAKNTVYLQMNSLKPEDTAVYYCKAQLIYKKGWYDYWGQGTQVTVSS	high polyreactivity
QVQLVESGGGLVQAGGSLRLSCAASGLTFVYYAMGWYRQAPGKERELVATISWDGGSTYYADSVKGRFTISRDNAKNTVYLQLNRLKPEDTAVYYCNKYVFDRYIYETEYDYWGQGTQVTVSS	high polyreactivity
QVQLVESGGGLVQAGGSLRLSCAASGLTFWDNAMGWYRQARGKERELVAAIRGGGSTYYADSVKGRFTISRDNAKNTVYLQMNSIIPEDTAVYYCNKQYWYWSNTLTIRDYWGQGTQVTVSS	low polyreactivity
QVQLVESGGGLVQAGGSLRLSCAASGLTFWLNAMGWYRQAPGKERELVAAIRYSGGGTYADSVKGRFTISRDNAKNTVYLQMNSLKPEDPAVYYCAALYNLGYPQFDYWGQGTQVTVSS	low polyreactivity
QVQLVESGGGLVQAGGSLRLSCAASGLTFYAYAMGWYRQAPGKERELVAAIRWSGGRTYYADSVKGRFTISRDTEKNTVYLQMNSLKPEDTAVYYCAAELSWRLYDYEYWGQGTQVTVSS	low polyreactivity
QVQLVESGGGLVQAGGSLRLSCAASGLTFYAYAMGWYRQAPGKERELVAGISRSGGRTYYADSVKGRFTISRDNAKNTVYLQMNSLKPEDTAVYYCAAGIPVTSRFYGMDWGQGTQVTVSS	high polyreactivity
QVQLVESGGGLVQAGGSLRLSCAASGLTFYCYAMGWYRQAPGKERELVAAITSGDSTYYADSVKGRFTISRDNAKNTVYLQMNSLKPEDTAVYYCAAVGGYPRYGYWGQGTQVTVSS	high polyreactivity
QVQLVESGGGLVQAGGSLRLSCAASGLTFYGYAMGWYRQAPGKERELVAAIRWSGGRTYYADSVKGRFTISRDNAKNTVYLQMNSLKPEDTAVYYCAADYSRYYGGDYWGQGTQVTVSS	low polyreactivity
QVQLVESGGGLVQAGGSLRLSCAASGLTFYGYVMGWYRQAPGKEWELVASISRSGGRTYYADSVKGRFTISRDNAKNTVFLQMNSLKPEDTAVYYCAKYLSRQSGDGEYDYWGQGTQVTVSS	low polyreactivity
QVQLVESGGGLVQAGGSLRLSCAASGLTFYHYTMGWYRQAPGKERELVAAITKNGGSTYYADSVKGRFTISRDNAKNTVYLQMNSLKPEDTAVYYCNVGPRRVDRSRAASSDYDYWGQGTQVTVSS	high polyreactivity
QVQLVESGGGLVQAGGSLRLSCAASGLTFYKNAMGWYSQAPGKERELVAAITQSGGSTYYADSVKGRFTISRDNAKNTVYLQMNSLKPEDTAVYYCAAATYLNGNNYYWGQGTQVTVSS	high polyreactivity
QVQLVESGGGLVQAGGSLRLSCAASGLTFYPYAMGWSRQAPGKERELVAAINWSGTTTYYADSVKGRFTISRDNAKNTVYLQMNSLKPEDTAVYYCNADVYYEPTTGYYLWDYDYWGQGTQVTVSS	low polyreactivity
QVQLVESGGGLVQAGGSLRLSCAASGLTFYPYAMGWYRQAPGKERELVAAITRSGTSTFYADSVKGRFTISRDNAKNTVYLQMNSLKPEETAVYYCAKGYFFVGTDWESYYWGQGTQVTVSS	low polyreactivity
